This passage reports activity (integrants per donor cell) results from US7425449.

In data set [1] the target is T1, U153 integrase (Listeria phage U153) (UniProt Q8LTD8).
T1 sequence: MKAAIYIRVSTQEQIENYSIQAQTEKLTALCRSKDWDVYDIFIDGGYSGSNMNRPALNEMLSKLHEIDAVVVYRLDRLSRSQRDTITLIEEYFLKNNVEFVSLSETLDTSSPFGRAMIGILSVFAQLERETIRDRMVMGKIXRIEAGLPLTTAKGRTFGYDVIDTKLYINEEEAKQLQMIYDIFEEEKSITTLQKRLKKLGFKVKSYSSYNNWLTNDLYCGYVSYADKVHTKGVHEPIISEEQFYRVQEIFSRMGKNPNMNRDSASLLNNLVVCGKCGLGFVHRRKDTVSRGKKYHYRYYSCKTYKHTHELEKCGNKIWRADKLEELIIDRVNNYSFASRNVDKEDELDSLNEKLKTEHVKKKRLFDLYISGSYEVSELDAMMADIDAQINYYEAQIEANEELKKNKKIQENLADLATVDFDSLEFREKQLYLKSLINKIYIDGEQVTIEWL
Kind of data set: cell_activity.

Data set [2] concerns the target T2, PSA integrase (Listeria phage PSA) (UniProt Q8W5Y3).
T2 sequence: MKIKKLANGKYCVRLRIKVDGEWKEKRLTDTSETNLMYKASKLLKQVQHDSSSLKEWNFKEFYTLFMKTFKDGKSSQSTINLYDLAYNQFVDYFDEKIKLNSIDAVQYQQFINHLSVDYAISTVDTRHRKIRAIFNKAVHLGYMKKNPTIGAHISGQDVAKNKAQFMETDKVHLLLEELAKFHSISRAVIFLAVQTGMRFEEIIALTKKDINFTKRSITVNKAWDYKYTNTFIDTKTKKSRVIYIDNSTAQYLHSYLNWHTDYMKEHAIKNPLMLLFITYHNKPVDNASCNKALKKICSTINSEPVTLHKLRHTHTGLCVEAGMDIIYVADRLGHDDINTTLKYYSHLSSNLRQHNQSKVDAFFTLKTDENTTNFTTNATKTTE
Kind of data set: cell_activity. The conditions noted are these: pPL2 in 10403S and EGDe; attB' side unrelated to 4b, attB side 96-97% identical.

Consider U153 attPP', for which the activity (integrants per donor cell) in data set [1] (attPP' partner on pPL1, stable for 100 generations) stood at 0.0002. Take comK-attBB': the activity (integrants per donor cell) in data set [1] (pPL1 integration at comK in DP-L4056, similar frequency in SLCC-5764 and 4b strains, PCR confirmed) was found to be 0.0002. Consider “tRNAArg-attBB' serotype 1/2 (10403S, EGDe)”, for which the activity (integrants per donor cell) in data set [2] is 0.0002.
